# Source: paper PMC314469, “Protein Interaction Networks by Proteome Peptide Scanning” (PLoS Biology, 2004)
# T1: amphyphisin SH3 (AMPH_HUMAN), P49418
# T1 chain: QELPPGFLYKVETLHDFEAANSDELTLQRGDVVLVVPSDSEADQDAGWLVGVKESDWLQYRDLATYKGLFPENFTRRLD
# Assays:
# [1] = target: T1, amphyphisin SH3 (AMPH_HUMAN), P49418; experiment: SPOT array
# [2] = target: endophilin SH3 (SH3G2_HUMAN), Q99962; experiment: SPOT array
Binder,"normalised SPOT signal, Boehringer light units (BLU); mean over the file's lines of this peptide [1]","normalised SPOT signal, Boehringer light units (BLU); mean over the file's lines of this peptide [2]"
ATDSPRRPSRSTGG [Q9H6U6 6-19],11300,472
QVKDIRRPERRHSD [Q9UI45 1886-1899],534,123
QYRSLPRPAKSSSM [Q9H9S9 177-190],220,764
QVDPPERPPSPPSD [Q9H4B3 193-207],92.2,326
RADIPKRPSYVAPL [Q9Y2F3 1400-1413],47.6,1460
QVFLPPRPPKVLGL [Q9Y3F0 251-265],1150,2710
AASSPARPPGLQRS [Q9BQ89 173-187],136,3950
RAASLRRPRRAASR [Q8WYB4 11-24],80.1,72.5
QVDPPERPPPPPSD [Q9H292 194-208],43.2,275
RAEVPTKPPLPPAR [Q9UKM7 224-238],8090,2440
QYNFLRRPQRMPVS [Q9BZC7 2011-2024],1220,764
RAPSPARPRRPHAS [Q9H8S7 104-117],6640,2140
RAPPPSRPPPRPSV [Q9H6X2 550-564],4340,11000
QYGFPRRPPPRGSQ [Q9BQH3 166-180],3010,2120
RAQRIRRPFRPILN [Q9NR60 64-77],180,80.9

# More lines, now with the values ahead:
"normalised SPOT signal, Boehringer light units (BLU); mean over the file's lines of this peptide [1]","normalised SPOT signal, Boehringer light units (BLU); mean over the file's lines of this peptide [2]",Binder
40.3,64.7,QVEKLRRPEGASNE [O75381 360-373]
35.1,94.2,QSTNPKRPLSSANQ [P35670 228-241]
6.6,28.4,QVYVLKRPYVDEFL [O14595 137-150]
1620,240,QVMVIKRPGRKRKA [P51608 244-257]
8910,14600,QVIRPPRPPKVLGL [P39193 571-585]
219,2140,RAPRPTRPDKARRL [P39030 37-50]
66.4,82.5,QVIGPHRPPELHDR [P20813 329-343]
117,423,QVIHPPRPPKVLGL [P39194 572-585]
708,33.9,RAITFRRPSRVHYY [Q96RS3 192-205]
37.5,93.1,QSLKIRRPHDYQPL [P26368 222-235]
19.5,58.8,QVYVLKRPHVDEFL [O15194 206-219]
20.7,61.3,ATFSLRRPWTEAGA [P20800 107-120]
60.7,43.1,QVVGPHRPPALDDR [Q14097 329-343]
42.5,0,QVNHLKRPVSGVGD [Q92610 1091-1104]
936,5000,QVILPPRPPKVLGL [P39188 470-484]
68.1,46.8,ATDLPKKPPPPEVT [Q96QH2 123-137]
